Here are results for four molecules from paper PMC7489894 (Biochemical Journal, 2020).

Where no end group is shown, it is not given here.

In general, Kd refers to the free concentration of one partner at which half of the binding sites on the other are occupied at equilibrium, for simple one-to-one binding.

In assay [1] the target is HyBcl-2-4. In words: ITC binding of BH3 motif peptides to HyBcl-2-4. Also on record: species or system Hydra vulgaris. Particulars: read-out: KD (dissociation constant), HyBcl-2-4, MicroCal iTC200, 25°C, tag-free HyBcl-2-4 lacking 30 C-terminal residues, 25 mM Hepes pH 7.5, 150 mM NaCl, means of 3 experiments ± SD, NB: no binding detected.
In assay [2] the target is HyBcl-2-4 lacking 30 C-terminal residues (fusion tag-free) (Hydra vulgaris). Nature of the assay: ITC. (In general: Isothermal titration calorimetry measures the heat released or taken up as one component is titrated into another.)
The target in assay [3] is human Bcl-xL (residues 1-209 Δloop45-84) (human, UniProt Q07817-1 1-209, Δloop45-84). Nature of the assay: ITC.
The target of assay [4] is T1, human Bcl-w (residues 9-152) (human, UniProt Q92843 9-152).
T1 sequence (looked up): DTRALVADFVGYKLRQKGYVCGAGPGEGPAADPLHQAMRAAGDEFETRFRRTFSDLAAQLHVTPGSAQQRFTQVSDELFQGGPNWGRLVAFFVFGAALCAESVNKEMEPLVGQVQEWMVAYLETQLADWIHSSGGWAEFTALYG
In words: ITC.

The target of assay [5] is T2, human A1/Bfl-1 (residues 1-151) (human, UniProt Q16548 1-151).
T2 sequence (looked up): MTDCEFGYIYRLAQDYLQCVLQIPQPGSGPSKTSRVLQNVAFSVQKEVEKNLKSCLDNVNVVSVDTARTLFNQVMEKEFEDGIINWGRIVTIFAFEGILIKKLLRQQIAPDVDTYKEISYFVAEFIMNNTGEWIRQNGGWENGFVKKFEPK
Nature of the assay: ITC.

The target in assay [6] is human Bcl-2 (residues 10-203) (human, UniProt P10415 10-203). Nature of the assay: ITC.
Chain of human Bcl-2 (residues 10-203) (P10415 10-203): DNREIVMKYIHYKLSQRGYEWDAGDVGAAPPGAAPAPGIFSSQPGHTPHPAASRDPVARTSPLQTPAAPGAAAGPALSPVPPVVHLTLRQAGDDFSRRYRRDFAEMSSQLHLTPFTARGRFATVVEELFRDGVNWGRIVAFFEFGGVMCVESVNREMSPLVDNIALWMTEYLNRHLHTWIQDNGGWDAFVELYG
Assay [7] addresses human Mcl-1 (residues 171-320) (human, UniProt Q07820 171-320). In words: ITC.

Chain of human Mcl-1 (residues 171-320) (Q07820 171-320): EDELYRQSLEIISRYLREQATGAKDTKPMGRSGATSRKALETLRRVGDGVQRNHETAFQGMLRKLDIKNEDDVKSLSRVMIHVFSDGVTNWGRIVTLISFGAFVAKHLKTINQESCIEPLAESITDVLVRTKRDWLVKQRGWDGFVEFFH

With SMRRLRAIGACLRAIGDDIQSRSEKS [HyBH3-only], the Kd in assay [1] amounted to 149 nM.

As for SRNGTVNKEVAHCLKRIGDDLVNNHQLN [HyBax BH3 motif peptide], the Kd in assay [2] amounted to 2290 nM; in assay [7], 41 nM. Further, the binding result in assay [3], in assay [4], in assay [5] and in assay [6] was “binds” throughout.

SMRRLRAIGACLRAIGDDIQSRSEKS [HyBH3-only-2 BH3 motif peptide]: the Kd in assay [2] is 149 nM; in assay [7], 50 nM. In addition, the binding result in assay [3], in assay [4], in assay [5] and in assay [6] was “binds” throughout.

Turning to SNGETENLGRVLASFGDEINDKYRQV [HyBak1 BH3 motif peptide], the binding result in assay [3], in assay [4], in assay [5] and in assay [6] was “binds” in each case. This molecule also showed a Kd in assay [7] of 67 nM.
